Results taken from article PMC12671738.
Values joined by “and” are separate entries in the source; they are usually repeats but may differ in a detail not shown here. Identical values can stand only once.

Experiments:
[1] = target: p33 protein of citrus tristeza virus (CTV) (citrus tristeza virus); assay: SDS-PAGE and western blot of SDS-resistant oligomers; crude extract: leaf discs of agroinfiltrated N. benthamiana macerated directly in SDS loading buffer with 8 M urea; blot with anti-p33 antibody; empty vector as control
[2] = target: p33 protein of citrus tristeza virus (CTV) (citrus tristeza virus); assay: SDS-PAGE and western blot of SDS-resistant oligomers; p33 immunoprecipitated from N. benthamiana leaf lysate with anti-p33 antibody on protein A magnetic beads, eluted in SDS loading buffer with 100 mM DTT and 8 M urea at 70 °C; blot with anti-p33 antibody

Question: What does the source list for “p33 protein of citrus tristeza virus (CTV) (natural protein)”?
Answer: stoichiometry N [1]: 2 and 4; stoichiometry N [2]: 2 and 4
